Results as given in US20140286898A1 (Amgen, published 2014).

T1: CD25 (IL-2Rα) on the surface of activated T cells (UniProt P01589 22-272, limits assumed)
T1 construct: whole, on cells; also called cell surface CD25
T1 sequence (looked up): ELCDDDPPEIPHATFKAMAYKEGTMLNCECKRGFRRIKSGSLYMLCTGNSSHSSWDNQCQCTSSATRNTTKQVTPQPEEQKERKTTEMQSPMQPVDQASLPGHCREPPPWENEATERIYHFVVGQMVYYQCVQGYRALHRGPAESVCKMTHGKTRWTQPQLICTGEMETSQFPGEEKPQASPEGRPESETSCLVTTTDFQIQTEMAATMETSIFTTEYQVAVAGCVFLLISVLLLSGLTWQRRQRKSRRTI

B1: HaMut1D (V69A, Q74P, N88D, C125A) (ligand)
chain: APTSSSTKKTQLQLEHLLLDLQMILNGINNYKNPKLTRMLTFKFYMPKKATELKHLQCLEEELKPLEEALNLAPSKNFHLRPRDLISDINVIVLELKGSETTFMCEYADETATIVEFLNRWITFAQSIISTLT
notes: IL-2 mutein without Fc; not shown: C-terminal FLAG and poly-His tag
B2: HaMut2D (N30S, V69A, Q74P, N88D, C125A) (ligand)
chain: APTSSSTKKTQLQLEHLLLDLQMILNGINSYKNPKLTRMLTFKFYMPKKATELKHLQCLEEELKPLEEALNLAPSKNFHLRPRDLISDINVIVLELKGSETTFMCEYADETATIVEFLNRWITFAQSIISTLT
notes: not shown: C-terminal FLAG and poly-His tag
B3: HaMut3D (K35R, V69A, Q74P, N88D, C125A) (ligand)
chain: APTSSSTKKTQLQLEHLLLDLQMILNGINNYKNPRLTRMLTFKFYMPKKATELKHLQCLEEELKPLEEALNLAPSKNFHLRPRDLISDINVIVLELKGSETTFMCEYADETATIVEFLNRWITFAQSIISTLT
notes: as for B2
B4: HaMut4D (T37A, V69A, Q74P, N88D, C125A) (ligand)
chain: APTSSSTKKTQLQLEHLLLDLQMILNGINNYKNPKLARMLTFKFYMPKKATELKHLQCLEEELKPLEEALNLAPSKNFHLRPRDLISDINVIVLELKGSETTFMCEYADETATIVEFLNRWITFAQSIISTLT
notes: as for B2
B5: HaMut5D (K48E, V69A, Q74P, N88D, C125A) (ligand)
chain: APTSSSTKKTQLQLEHLLLDLQMILNGINNYKNPKLTRMLTFKFYMPEKATELKHLQCLEEELKPLEEALNLAPSKNFHLRPRDLISDINVIVLELKGSETTFMCEYADETATIVEFLNRWITFAQSIISTLT
notes: as for B2
B6: HaMut6D (E68D, V69A, Q74P, N88D, C125A) (ligand)
chain: APTSSSTKKTQLQLEHLLLDLQMILNGINNYKNPKLTRMLTFKFYMPKKATELKHLQCLEEELKPLEDALNLAPSKNFHLRPRDLISDINVIVLELKGSETTFMCEYADETATIVEFLNRWITFAQSIISTLT
notes: as for B2
B7: HaMut7D (N71R, V69A, Q74P, N88D, C125A) (ligand)
chain: APTSSSTKKTQLQLEHLLLDLQMILNGINNYKNPKLTRMLTFKFYMPKKATELKHLQCLEEELKPLEEALRLAPSKNFHLRPRDLISDINVIVLELKGSETTFMCEYADETATIVEFLNRWITFAQSIISTLT
notes: as for B2
B8: HaMut8D (K35R, K48E, E68D, N88D, C125A) (ligand)
chain: APTSSSTKKTQLQLEHLLLDLQMILNGINNYKNPRLTRMLTFKFYMPEKATELKHLQCLEEELKPLEDVLNLAQSKNFHLRPRDLISDINVIVLELKGSETTFMCEYADETATIVEFLNRWITFAQSIISTLT
notes: as for B2

Each binder was assayed against T1, CD25 (IL-2Rα) on the surface of … (assay: flow cytometry, binding to CD25 on the surface of activated T cells).
A Kd of roughly 2 nM was found for B1 in this work.
B2: binds.
B3: binds.
B4: binds.
B5: binds.
B6: binds.
A Kd of roughly 0.2 nM was found for B7 in this work.
B8: binds.
